Assay results published in IntAct's records for PubMed 24207126.

B1: Eukaryotic translation initiation factor 4E-binding protein 2 (Homo sapiens), Q13542 (parent)
chain: MSSSAGSGHQPSQSRAIPTRTVAISDAAQLPHDYCTTPGGTLFSTTPGGTRIIYDRKFLLDRRNSPMAQTPPCHLPNIPGVTSPGTLIEDSKVEVNNLNNLNNHDRKHAVGDDAQFEMDI

Variants of: B1
Details: with if4e_human EIF4E

Row | Variant | effect of a mutation on the interaction
1 | Y54A;L59A;I78A;P79A;G80A;V81A;T82A | disrupting interaction strength

Variants of: B1
Details: with if4e_human EIF4E
Remark: another data set of the same source

Row | Variant | effect of a mutation on the interaction
2 | I78A;P79A;G80A;V81A;T82A | decreasing interaction strength
3 | Y54A;L59A | decreasing interaction strength
